B1: Small nuclear ribonucleoprotein E (Saccharomyces cerevisiae), Q12330 (parent)
chain: MSNKVKTKAMVPPINCIFNFLQQQTPVTIWLFEQIGIRIKGKIVGFDEFMNVVIDEAVEIPVNSADGKEDVEKGTPLGKILLKGDNITLITSAD
partner: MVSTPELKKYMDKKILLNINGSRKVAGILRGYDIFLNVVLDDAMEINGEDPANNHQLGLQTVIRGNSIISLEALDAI
B2: Small nuclear ribonucleoprotein E (Saccharomyces cerevisiae), Q12330 (parent)
chain: B1 chain

Variants of: B1
Conditions: with ruxg_yeast SMX2, P40204

Variant | effect of a mutation on the interaction
MSNKVKTKAMVPPINCIFNFLQQQTPVTKWLFEQIGIRIKGKIVGFDEFMNVVIDEAVEIPVNSADGKEDVEKGTPLGKILLKGDNITLITSAD | disrupting interaction strength
MSNKVKTKAMVPPINCIFNFLQQQTPVTIWLFEQIGIRIKGKIVGFAEFMNVVIDEAVEIPVNSADGKEDVEKGTPLGKILLKGDNITLITSAD | decreasing interaction strength
MSNKVKTKAMVPPINCIFNFLQQQTPVTIWLFEQIGIRIKGKIVGFHEFMNVVIDEAVEIPVNSADGKEDVEKGTPLGKILLKGDNITLITSAD | decreasing interaction strength
MSNKVKTKAMVPPINCIFNFLQQQTPVTIWSFEQIGIRIKGKIVGFDEFMNVVIDEAVEIPVNSADGKEDVEKGTPLGKILLKGDNITLITSAD | with no effect
MSNKVKTKAMVPPINCIFNFLQQQTPVTIWLFEQIGIRIKGKIVVFDEFMNVVIDEAVEIPVNSADGKEDVEKGTPLGKILLKGDNITLITSAD | with no effect
MSNKVKTKAMVPPINCIFNFLQQQTPETIWLFEQIGIRIKGKIVGFDEFMNVVIDEAVEIPVNSADGKEDVEKGTPLGKILLKGDNITLITSAD | disrupting interaction strength
MSNKVKTKAMVPPINCIFNFLQQQTPVTIWLFEQIGIRIKDKIVGFDEFMNVVIDEAVEIPVNSADGKEDVEKGTPLGKILLKGDNITLITSAD | disrupting interaction strength
MSNKVKTKAVVPPINCIFNFLQQQTPVTIWLFEQIGIRIKGKIVGFDEFMNVVIDEAVEIPVNSADGKEDVEKGTPLGKILLKGDNITLITSAD | with no effect
MSTKVKTKAMVPPINCIFNFLQQQTPVTIWLFEQIGIRIKGKIVGFDEFMNVVIDEAVEIPVNSADGKEDVEKGTPLGKILLKGDNITLITSAD | with no effect
MSNKVETKAMVPPINCIFNFLQQQTPVTIWLFEQIGIRIKGKIVGFDEFMNVVIDEAVEIPVNSADGKEDVEKGTPLGKILLKGDNITLITSAD | with no effect
MSNKVKTKAMVPPINCIFNFLQQQTPVTIWLFEQIGIRIKGKIVGFDEFMAVVIDEAVEIPVNSADGKEDVEKGTPLGKILLKGDNITLITSAD | with no effect
MSNKVKTKAMVPPINCIFNFLQQQTPVTIWLFEQIGIRIKGKIVGFDEFANVVIDEAVEIPVNSADGKEDVEKGTPLGKILLKGDNITLITSAD | decreasing interaction strength

The remaining lines, values ahead:

effect of a mutation on the interaction | Variant
with no effect | MSNKVKTKAMVPPINCIFNFLQQQTPVTIWLFEQIGIRIKGKIVGFDEFMNVVIDEAVAIPVDSADGKEDVEKGTPLGKILLKGDNITLITSAD
with no effect | MSNKVKTKAMVPPINCIFNFLQQQTPVTIWLFEQIGIRIKGKIVGFDEFMNVVIDEAVEIPVNSADGKEDVEKGTPLGKIPLKGDNITLITSAD
disrupting interaction strength | MSNKVKTKAMVPPINCIFNFLQQQTPVTIWLFEQIGIRIKGKIVGFDEFMNVVNDEAVEIPVNSADGKEDVEKGTPLGKILLKGDNITLITSAD
decreasing interaction strength | MSNKVKTKAMVPPINCIFNFLQQQTPVTIWLFEQIGIRIKGKIVGFDEFMNVVIDEAVEIPVNSADGKEDVEKGTPLGKILLKGDAITLITSAD
disrupting interaction strength | MSNKVKTKAMVPPINCIFNFLQQQTPVTIWLFEQIGIRIKGKIVGFDEFMNVVIDEAVEIPVNSADGKEDVEKGTPLGKILLKGDNITLRTSAD
with no effect | MSNKVKTKAMVPPINCIFNFLQQQTPVTIWLFEQIGIRIKGKIVGFDEFMNVVIDEAVEIPVNSADGKEDVEKGTPLGKILLKADNITLITSAD
with no effect | MSNKVKTKAMVPPINCIFNFLQQQTPVTIWLFEQIGIRIKGKIVGFDEFMNVVIDEAVEIPVNSADGKEDVEKGTSLGKILLKGDNITLITSAD
with no effect | MSNKVKTKAMVPPINCIFNFLQQQTPVTIWLFEQIGIRIKGKIVGFDEFMNVVIDEAVEIPVNSADGKEDVEKGTPLGKFLLKGDNITLITSAD
with no effect | MSNKVKTKAMVPPINCIFNFLQQQTPVTIWLFEQIGIRIKGKIVGFDEFMNVVIDEAVEIPVNSADGKEDVEKGTPLGKILLVGDNITLITSAD

Variants of: B1
Conditions: with ruxg_yeast SMX2, P40204
Remark: another data set of the same source

effect of a mutation on the interaction | Variant
disrupting interaction strength | MSNKVKTKAMVPPINCIFNFLLQQTPVTIWLFEQIGIRIKGKIVGFDEFMNVVIDEAVEIPVNSADGKEDVEKGTPLGKILLKGDNITLITSAD

Variants of: B2
Conditions: with ruxf_yeast SMX3, P54999
ruxf_yeast SMX3, P54999, sequence (P54999 whole entry): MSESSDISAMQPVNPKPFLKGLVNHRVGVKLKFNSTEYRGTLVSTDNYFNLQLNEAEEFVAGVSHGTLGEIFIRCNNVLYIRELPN

Variant | effect of a mutation on the interaction
MSNKVKTKAMVPPINCIFNFLQQQTPVTIWLFEQIGIRIKGKIVVFDEFMNVVIDEAVEIPVNSADGKEDVEKGTPLGKILLKGDNITLITSAD | with no effect
MSNKVKTKAMVPPINCIFNFLLQQTPVTIWLFEQIGIRIKGKIVGFDEFMNVVIDEAVEIPVNSADGKEDVEKGTPLGKILLKGDNITLITSAD | disrupting interaction strength
MSNKVKTKAMVPPINCIFNFLQQQTPVTIWLFEQIGIRIKGKIVGFDEFMAVVIDEAVEIPVNSADGKEDVEKGTPLGKILLKGDNITLITSAD | decreasing interaction strength
MSTKVKTKAMVPPINCIFNFLQQQTPVTIWLFEQIGIRIKGKIVGFDEFMNVVIDEAVEIPVNSADGKEDVEKGTPLGKILLKGDNITLITSAD | increasing interaction strength
MSNKVKTKAMVPPINCIFNFLQQQTPETIWLFEQIGIRIKGKIVGFDEFMNVVIDEAVEIPVNSADGKEDVEKGTPLGKILLKGDNITLITSAD | disrupting interaction strength
MSNKVKTKAMVPPINCIFNFLQQQTPVTIWSFEQIGIRIKGKIVGFDEFMNVVIDEAVEIPVNSADGKEDVEKGTPLGKILLKGDNITLITSAD | with no effect
MSNKVKTKAMVPPINCIFNFLQQQTPVTIWLFEQIGIRIKGKIVGFDEFANVVIDEAVEIPVNSADGKEDVEKGTPLGKILLKGDNITLITSAD | decreasing interaction strength
MSNKVKTKAMVPPINCIFNFLQQQTPVTKWLFEQIGIRIKGKIVGFDEFMNVVIDEAVEIPVNSADGKEDVEKGTPLGKILLKGDNITLITSAD | disrupting interaction strength
MSNKVKTKAMVPPINCIFNFLQQQTPVTIWLFEQIGIRIKGKIVGFHEFMNVVIDEAVEIPVNSADGKEDVEKGTPLGKILLKGDNITLITSAD | disrupting interaction strength
MSNKVKTKAMVPPINCIFNFLQQQTPVTIWLFEQIGIRIKGKIVGFAEFMNVVIDEAVEIPVNSADGKEDVEKGTPLGKILLKGDNITLITSAD | disrupting interaction strength
MSNKVKTKAMVPPINCIFNFLQQQTPVTIWLFEQIGIRIKDKIVGFDEFMNVVIDEAVEIPVNSADGKEDVEKGTPLGKILLKGDNITLITSAD | disrupting interaction strength
MSNKVETKAMVPPINCIFNFLQQQTPVTIWLFEQIGIRIKGKIVGFDEFMNVVIDEAVEIPVNSADGKEDVEKGTPLGKILLKGDNITLITSAD | with no effect
MSNKVKTKAVVPPINCIFNFLQQQTPVTIWLFEQIGIRIKGKIVGFDEFMNVVIDEAVEIPVNSADGKEDVEKGTPLGKILLKGDNITLITSAD | with no effect

More lines, now with the values ahead:

effect of a mutation on the interaction | Variant
disrupting interaction strength | MSNKVKTKAMVPPINCIFNFLQQQTPVTIWLFEQIGIRIKGKIVGFDEFMNVVNDEAVEIPVNSADGKEDVEKGTPLGKILLKGDNITLITSAD
with no effect | MSNKVKTKAMVPPINCIFNFLQQQTPVTIWLFEQIGIRIKGKIVGFDEFMNVVIDEAVAIPVDSADGKEDVEKGTPLGKILLKGDNITLITSAD
with no effect | MSNKVKTKAMVPPINCIFNFLQQQTPVTIWLFEQIGIRIKGKIVGFDEFMNVVIDEAVEIPVNSADGKEDVEKGTSLGKILLKGDNITLITSAD
disrupting interaction strength | MSNKVKTKAMVPPINCIFNFLQQQTPVTIWLFEQIGIRIKGKIVGFDEFMNVVIDEAVEIPVNSADGKEDVEKGTPLGKIPLKGDNITLITSAD
decreasing interaction strength | MSNKVKTKAMVPPINCIFNFLQQQTPVTIWLFEQIGIRIKGKIVGFDEFMNVVIDEAVEIPVNSADGKEDVEKGTPLGKFLLKGDNITLITSAD
decreasing interaction strength | MSNKVKTKAMVPPINCIFNFLQQQTPVTIWLFEQIGIRIKGKIVGFDEFMNVVIDEAVEIPVNSADGKEDVEKGTPLGKILLKGDNITLRTSAD
